# Reference: publication PMC11643744, “New Conjugates of Vancomycin with Cell-Penetrating Peptides—Synthesis, Antimicrobial Activity, Cytotoxicity, and BBB Permeability Studies” (Molecules, 2024)
# Peptide text beside a SMILES is read from it. * marks the point of attachment. Propioloyl = C#CC(=O)*
# Assay: in vitro
# From the text: This assay utilized a 96-well plate assembly consisting of a filter plate pre-coated with polar brain lipids (donor plate) and a receiver plate (acceptor plate). The phospholipid mixture used to coat the membrane was extracted from porcine polar brain lipids, with the following composition: 12.6% phosphatidylcholine, 33.1% phosphatidylethanolamine, 18.5% phosphatidylserine, 4.1% phosphatidylinositol, 0.8% phosphatidic acid, and 30.9% of other compounds, including cerebrosides, sulfatides, and pigments.
# In each well of the donor filtration plate (Multiscreen Filter Plate, PVDF with a pore size of 0.45 µm), 5 µL of the phospholipid mixture in n-dodecane (20 mg/mL) was carefully applied to form the artificial membrane. After coating, 200 µL of phosphate-buffered saline (PBS at pH 7.4) containing 5% dimethyl sulfoxide (DMSO) as a co-solvent, and the test compound (at a concentration of 20 µM) was added to each well of the donor plate (in triplicate). […] The plate lid was then replaced and the resulting assembled donor–acceptor plates were incubated at room temperature for 20 h. After this time, the donor plate was removed and solutions from each well of both acceptor and donor plates were collected for further analysis. The concentrations of the tested compounds were determined by LC-MS. The analysis was conducted by UHPLC-MS system (Shimadzu Nexera X2 with LCMS-2020 detector) using a ReproSil Pure 120 ODS-3 column (Dr. Maisch GmbH, 100 × 2 mm, 2.4 µm particle size) with several gradients of ACN with 0.1% FA and 0.05% TFA at a flow rate of 0.3 mL/min. The eluted solution was monitored by an ESI-MS detector operated in a selected ion monitoring mode (SIM). […] CE=CD×VD+CA×VA/VD+VA
Structure (SMILES),"R, mass retention (PAMPA, 20 h, 20 µM, pH 7.4) [%]","Papp at 20 h, 20 µM (PAMPA, pH 7.4) [×10⁻⁶ cm/s]","R, mass retention (20 h incubation, mean ± SEM) [%]"
"O=C(O)Cc1ccccc1Nc1c(Cl)cccc1Cl [Diclofenac, reference compound]",12.0 ± 3.3,3.44 ± 0.1,
CN[C@H](CC(C)C)C(=O)N[C@H]1C(=O)N[C@@H](CC(N)=O)C(=O)N[C@H]2C(=O)N[C@H]3C(=O)N[C@H](C(=O)N[C@H](C(=O)NCCOCCOCCOCCn4cc(C(=O)N[C@@H](Cc5ccc(O)cc5)C(=O)NCC(=O)N[C@@H](CCCNC(=N)N)C(=O)N[C@@H](CCCCN)C(=O)N[C@@H](CCCCN)C(=O)N[C@@H](CCCNC(=N)N)C(=O)N[C@@H](CCCNC(=N)N)C(=O)N[C@@H](CCC(N)=O)C(=O)N[C@@H](CCCNC(=N)N)C(=O)N[C@@H](CCCNC(=N)N)C(=O)N[C@@H](CCCNC(=N)N)C(N)=O)nn4)c4cc(O)cc(O)c4-c4cc3ccc4O)[C@H](O)c3ccc(c(Cl)c3)Oc3cc2cc(c3O[C@@H]2O[C@H](CO)[C@@H](O)[C@H](O)[C@H]2O[C@H]2C[C@](C)(N)[C@H](O)[C@H](C)O2)Oc2ccc(cc2Cl)[C@H]1O [compound 5],,,8.7 ± 3.8
CN[C@H](CC(C)C)C(=O)N[C@H]1C(=O)N[C@@H](CC(N)=O)C(=O)N[C@H]2C(=O)N[C@H]3C(=O)N[C@H](C(=O)N[C@H](C(=O)O)c4cc(O)cc(O)c4-c4cc3ccc4O)[C@H](O)c3ccc(c(Cl)c3)Oc3cc2cc(c3O[C@@H]2O[C@H](CO)[C@@H](O)[C@H](O)[C@H]2O[C@H]2C[C@](C)(NC(=O)CCOCCOCCOCCOCCn3cc(C(=O)N[C@@H](Cc4ccc(O)cc4)C(=O)NCC(=O)N[C@@H](CCCNC(=N)N)C(=O)N[C@@H](CCCCN)C(=O)N[C@@H](CCCCN)C(=O)N[C@@H](CCCNC(=N)N)C(=O)N[C@@H](CCCNC(=N)N)C(=O)N[C@@H](CCC(N)=O)C(=O)N[C@@H](CCCNC(=N)N)C(=O)N[C@@H](CCCNC(=N)N)C(=O)N[C@@H](CCCNC(=N)N)C(N)=O)nn3)[C@H](O)[C@H](C)O2)Oc2ccc(cc2Cl)[C@H]1O [compound 6],,,77.7 ± 0.3
CN[C@H](CC(C)C)C(=O)N[C@H]1C(=O)N[C@@H](CC(N)=O)C(=O)N[C@H]2C(=O)N[C@H]3C(=O)N[C@H](C(=O)N[C@H](C(=O)NCCSSCCn4cc(C(=O)N[C@@H](Cc5ccc(O)cc5)C(=O)NCC(=O)N[C@@H](CCCNC(=N)N)C(=O)N[C@@H](CCCCN)C(=O)N[C@@H](CCCCN)C(=O)N[C@@H](CCCNC(=N)N)C(=O)N[C@@H](CCCNC(=N)N)C(=O)N[C@@H](CCC(N)=O)C(=O)N[C@@H](CCCNC(=N)N)C(=O)N[C@@H](CCCNC(=N)N)C(=O)N[C@@H](CCCNC(=N)N)C(N)=O)nn4)c4cc(O)cc(O)c4-c4cc3ccc4O)[C@H](O)c3ccc(c(Cl)c3)Oc3cc2cc(c3O[C@@H]2O[C@H](CO)[C@@H](O)[C@H](O)[C@H]2O[C@H]2C[C@](C)(N)[C@H](O)[C@H](C)O2)Oc2ccc(cc2Cl)[C@H]1O [compound 7],,,23.8 ± 4.9
CN[C@H](CC(C)C)C(=O)N[C@H]1C(=O)N[C@@H](CC(N)=O)C(=O)N[C@H]2C(=O)N[C@H]3C(=O)N[C@H](C(=O)N[C@H](C(=O)O)c4cc(O)cc(O)c4-c4cc3ccc4O)[C@H](O)c3ccc(c(Cl)c3)Oc3cc2cc(c3O[C@@H]2O[C@H](CO)[C@@H](O)[C@H](O)[C@H]2O[C@H]2C[C@](C)(NC(=O)CCC(=O)NCCSSCCn3cc(C(=O)N[C@@H](Cc4ccc(O)cc4)C(=O)NCC(=O)N[C@@H](CCCNC(=N)N)C(=O)N[C@@H](CCCCN)C(=O)N[C@@H](CCCCN)C(=O)N[C@@H](CCCNC(=N)N)C(=O)N[C@@H](CCCNC(=N)N)C(=O)N[C@@H](CCC(N)=O)C(=O)N[C@@H](CCCNC(=N)N)C(=O)N[C@@H](CCCNC(=N)N)C(=O)N[C@@H](CCCNC(=N)N)C(N)=O)nn3)[C@H](O)[C@H](C)O2)Oc2ccc(cc2Cl)[C@H]1O [compound 8],,,31.5 ± 1.5
C#CC(=O)N[C@@H](Cc1ccc(O)cc1)C(=O)N[C@@H](C)C(=O)N[C@@H](CCCNC(=N)N)C(=O)N[C@@H](C)C(=O)N[C@@H](C)C(=O)N[C@@H](C)C(=O)N[C@@H](CCCNC(=N)N)C(=O)N[C@@H](CCC(N)=O)C(=O)N[C@@H](C)C(=O)N[C@@H](CCCNC(=N)N)C(=O)N[C@@H](C)C(N)=O [compound 9] (Propioloyl-YARAAARQARA-NH2),,,6.7 ± 1.5
